The source of these data is paper PMC3594540.

Experiment [1] has as its target murine Gαq (residues 7–359), biotinylated for bead binding (murine) (UniProt P21279). The experiment in a line: flow cytometry protein interaction assay. (Flow cytometry measures light scatter and fluorescence of single cells or particles in a stream.)
In experiment [2] the target is PLCβ3-Δ892 (human) (UniProt Q01970).
Experiment [3] addresses Gαq-ΔN (murine) (UniProt P21279). Put plainly: flow cytometry protein interaction assay.
In experiment [4] the target is Gαq D296A P298D (murine) (UniProt P21279). Put plainly: flow cytometry protein interaction assay.
The target of experiment [5] is Gαq K311A (murine) (UniProt P21279). Put plainly: flow cytometry protein interaction assay.
For experiment [6], the target named is PLCβ3-Δ892 T652E (human) (UniProt Q01970).

Chain of murine Gαq (residues 7–359), biotinylated for bead binding (murine) (P21279 7-359): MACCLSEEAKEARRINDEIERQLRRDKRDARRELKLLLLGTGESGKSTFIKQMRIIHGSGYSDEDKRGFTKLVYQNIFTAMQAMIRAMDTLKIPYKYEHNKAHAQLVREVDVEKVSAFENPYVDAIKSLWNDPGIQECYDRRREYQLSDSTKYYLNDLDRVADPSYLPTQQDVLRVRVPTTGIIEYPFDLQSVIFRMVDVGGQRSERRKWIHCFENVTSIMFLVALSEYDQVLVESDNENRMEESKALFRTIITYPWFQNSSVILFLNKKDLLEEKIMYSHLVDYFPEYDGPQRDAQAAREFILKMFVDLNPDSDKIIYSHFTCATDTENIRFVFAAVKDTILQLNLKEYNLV
Chain of Gαq-ΔN (murine) (P21279 37-359, stated change not applied): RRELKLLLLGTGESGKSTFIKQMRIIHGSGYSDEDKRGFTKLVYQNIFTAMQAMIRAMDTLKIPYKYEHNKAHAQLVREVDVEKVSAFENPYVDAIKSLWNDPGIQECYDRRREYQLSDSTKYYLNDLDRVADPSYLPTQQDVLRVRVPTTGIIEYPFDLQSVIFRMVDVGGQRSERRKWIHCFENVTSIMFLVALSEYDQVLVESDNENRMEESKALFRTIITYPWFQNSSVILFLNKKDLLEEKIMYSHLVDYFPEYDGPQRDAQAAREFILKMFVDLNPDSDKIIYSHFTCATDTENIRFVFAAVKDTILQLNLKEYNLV
Chain of Gαq K311A (murine) (P21279 7-359 K311A): as the sequence (P21279 7-359) above, with K305A counted along it
Chain of murine Gαq (residues 7–359), biotinylated for bead binding (P21279 7-359): as the sequence (P21279 7-359) above
Chain of Gαq D296A P298D (murine) (P21279 7-359 D296A/P298D): as the sequence (P21279 7-359) above, with D290A, P292D counted along it
Chain of Gαq-ΔN (P21279 37-359, stated change not applied): as the sequence (P21279 37-359, stated change not applied) above

By Kd is commonly meant the free concentration of one partner at which half of the binding sites on the other are occupied at equilibrium, for simple one-to-one binding. Take “AF488-labeled PLCβ3-Δ892 R872A L876A L879A (from UniProt Q01970 10-892) (domain or fragment)”: in experiment [1], the Kd worked out at 0.04 µM. “Gαq C9S C10S (from UniProt P21279 7-359) (natural protein)” had an EC50 of Gαq-stimulated PIP2 hydrolysis ([3H]-IP3 release from liposomes) in experiment [2] of 0.15 µM. Same read-out and setting: for “Gαq D296A P298D (from UniProt P21279 7-359) (natural protein)” the value was 0.54 µM; for “Gαq K311A (from UniProt P21279 7-359) (natural protein)”, 0.15 µM; for “Gαq-ΔN (from UniProt P21279 37-359) (domain or fragment)”, 0.059 µM. A word on the Ki: it is a measure of affinity in units of concentration, obtained from inhibition or displacement. High values mean lower affinity, low ones higher affinity. Turning to “PLCβ3 I1129E V1133E I1136E triple mutant (from UniProt Q01970) (enzyme)”, the Ki in experiment [3] came to 0.078 µM; in experiment [1] it was 0.093 µM. Take “PLCβ3 L876A (from UniProt Q01970 10-1234) (enzyme)”: the Ki amounted to 0.012 µM in experiment [4], 0.016 µM in experiment [5], 0.024 µM in experiment [3] and 0.02 µM in experiment [1].

For the substance “PLCβ3 L876A EEE (from UniProt Q01970) (enzyme)”, the Ki amounted to 0.042 µM in experiment [3] and 0.026 µM in experiment [1]. In experiment [1], “PLCβ3 T652E (from UniProt Q01970) (enzyme)” came in with a Ki of 0.16 µM. On the same count and under the same terms, for “PLCβ3-Δ882-937 (from UniProt Q01970 10-1234) (enzyme)” the value was 0.23 µM; for “PLCβ3-Δ882-937 L876A (from UniProt Q01970 10-1234) (enzyme)”, 0.012 µM. In the case of “PLCβ3-Δ892 (from UniProt Q01970 10-892) (domain or fragment)”, the Ki in experiment [4] came out at 0.42 µM; in experiment [5], 0.38 µM; in experiment [3] it was 0.49 µM; in experiment [1] it was 0.49 µM.

“PLCβ3-Δ892 T652E (from UniProt Q01970 10-892) (domain or fragment)”: in experiment [1], the Ki is 0.25 µM. In experiment [5], “human PLCβ3 (residues 10–1234) (from UniProt Q01970 10-1234) (enzyme)” came in with a Ki of 0.26 µM. With “murine Gαq (residues 7–359), biotinylated for bead binding (from UniProt P21279 7-359) (natural protein)”, the EC50 of Gαq-stimulated PIP2 hydrolysis ([3H]-IP3 release from liposomes) in experiment [2] was 0.059 µM; in experiment [6], 0.25 µM.
